Read-outs that look alike come from different tables or passages of the source.
Legend:
Assay in all cases: cell-based or functional assay
[1] = target: T1, HLA-A*02-presented SPINK2-001 on target cells (T2 cells loaded with SPINK2-001 peptide); A375 cells … (human)
[2] = target: T1, HLA-A*02-presented SPINK2-001 on target …; remark: listed apart in the source
[3] = target: T1, HLA-A*02-presented SPINK2-001 on target …; remark: listed apart in the source

B1: TCR R40P1C2, alpha and beta chains expressed in human primary CD8+ T-cells by RNA electroporation (TCR, V domains shown)
V domain 1: QTVTQSQPEMSVQEAETVTLSCTYDTSESDYYLFWYKQPPSRQMILVIRQEAYKQQNATENRFSVNFQKAAKSFSLKISDSQLGDAAMYFCAYLNYQLIWGAGTKLIIKP
V domain 2: EPEVTQTPSHQVTQMGQEVILRCVPISNHLYFYWYRQILGQKVEFLVSFYNNEISEKSEIFDDQFSVERPDGSNFTLKIRSTKLEDSAMYFCASSEMTAVGQYFGPGTRLTVTE
[1]
  EC50 (read off the curve), IFNγ release, donor TCRA-0024: ~3 nM

B2: TCR R59P2A7, alpha and beta chains expressed in human primary CD8+ T-cells by RNA electroporation (TCR, V domains shown)
V domain 1: QKEVEQNSGPLSVPEGAIASLNCTYSDRGSQSFFWYRQYSGKSPELIMSIYSNGDKEDGRFTAQLNKASQYVSLLIRDSQPSDSATYLCAVQPHDMRFGAGTRLTVKP
V domain 2: SQTIHQWPATLVQPVGSPLSLECTVEGTSNPNLYWYRQAAGRGLQLLFYSVGIGQISSEVPQNLSASRPQDRQFILSSKKLLLSDSGFYLCAWSGLVAEQFFGPGTRLTVLE
[2]
  EC50 (read off the curve), IFNγ release, donor TCRA-0023: ~10 nM
  EC50 (read off the curve), IFNγ release, donor TCRA-0024: ~50 nM

B3: TCR R44P3E7, alpha and beta chains expressed in human primary CD8+ T-cells by RNA electroporation (TCR, V domains shown)
V domain 1: RGEDVEQSLFLSVREGDSSVINCTYTDSSSTYLYWYKQEPGAGLQLLTYIFSNMDMKQDQRLTVLLNKKDKHLSLRIADTQTGDSAIYFCAEINNNARLMFGDGTQLVVKP
V domain 2: AAGVIQSPRHLIKEKRETATLKCYPIPRHDTVYWYQQGPGQDPQFLISFYEKMQSDKGSIPDRFSAQQFSDYHSELNMSSLELGDSALYFCASSPPDQNTQYFGPGTRLTVLE
[3]
  EC50 (read off the curve), IFNγ release, donor TCRA-0023: ~0.6 nM
  EC50 (read off the curve), IFNγ release, donor TCRA-0024: ~1 nM

Source: patent US20210388079A1 (IMMATICS BIOTECHNOLOGIES, published 2021)
